Experimental data as given in publication PMC3499583.
Values joined by “and” are separate entries in the source; they are usually repeats but may differ in a detail not shown here. Equal entries are not always repeated.

Assays:
[1] = molecular target: Semaphorin-7A entire ectodomain, biotinylated bait (human); test: SPR; Biacore T100; biotinylated Semaphorin-7A ectodomain, PNGase F-treated form, single domains or variants captured on a streptavidin chip, purified monomeric MTRAP injected; reference biotinylated rat Cd4d3+4; 37°C, HBS-EP
[2] = molecular target: PNGase F-treated Semaphorin-7A, biotinylated bait (human); test: as above
[3] = molecular target: Semaphorin-7A Sema domain, biotinylated bait (human) (UniProt O75326); test: as above
[4] = molecular target: MTRAP entire ectodomain, biotinylated bait (P. falciparum); test: SPR; Biacore T100; biotinylated MTRAP or TSR baits captured on a streptavidin chip, serial dilutions of purified Semaphorin-7A injected (20 µl/min for equilibrium); reference biotinylated rat Cd4d3+4; 37°C, HBS-EP
[5] = molecular target: MTRAP TSR1+2 fragment, biotinylated bait (P. falciparum); test: as above
[6] = molecular target: purified monomeric Semaphorin-7A ectodomain (Cd4d3+4-His6) (human); test: SEC-MALS; Superdex200 10/30 in 50 mM Tris.HCl pH 7.5, 150 mM NaCl, 0.4 ml/min; Dawn Heleos-II and Optilab-Rex
[7] = molecular target: purified monomeric Semaphorin-7A ectodomain (Cd4d3+4-His6) (human); test: SEC; Superdex 200 Tricorn 10/600 in HBS-EP; nickel-purified His-tagged proteins alone and mixed at equimolar concentrations; fractions on SDS-PAGE, Coomassie
[8] = molecular target: purified monomeric Semaphorin-7A ectodomain (Cd4d3+4-His6) (human); test: SEC + other: amino acid analysis; peak fraction of the SEC of the equimolar mixture; amino acid composition compared with theoretical 1:1, 2:1 and 1:2 (Semaphorin-7A:MTRAP)
[9] = molecular target: P. falciparum MTRAP TSR1+2 fragment, biotinylated bait (Cd4d3+4-biotin) (P. falciparum); test: SPR; equilibrium (steady state affinity model); biotinylated MTRAP or TSR1+2 captured on a streptavidin-coated chip, serial dilutions of purified Semaphorin-7A injected at 20 µl/min; Biacore T100, 37°C, HBS-EP; reference flow cell with biotinylated rat Cd4d3+4
[10] = molecular target: P. falciparum MTRAP entire ectodomain, biotinylated bait (Cd4d3+4-biotin) (P. falciparum); test: as above
[11] = molecular target: Human Semaphorin-7A ectodomain, natural variant R474L, biotinylated bait (human); test: SPR; kinetic (dissociation model fitted to a family of binding curves); biotinylated Semaphorin-7A or its variants captured on a streptavidin-coated chip, serial dilutions of purified MTRAP injected at 100 µl/min; Biacore T100, 37°C, HBS-EP
[12] = molecular target: Human Semaphorin-7A ectodomain, natural variant R475T, biotinylated bait (human); test: as above
[13] = molecular target: Human Semaphorin-7A ectodomain, natural variant R207Q, biotinylated bait (human); test: as above
[14] = molecular target: Human Semaphorin-7A ectodomain, natural variant S115T, biotinylated bait (human); test: as above
[15] = molecular target: Human Semaphorin-7A ectodomain, natural variant Q530P, biotinylated bait (human); test: as above
[16] = molecular target: Human Semaphorin-7A entire ectodomain, biotinylated bait (Cd4d3+4-biotin) (human); test: as above
[17] = molecular target: Human Semaphorin-7A ectodomain, natural variant E473V, biotinylated bait (human); test: as above
[18] = molecular target: Human Semaphorin-7A ectodomain, natural variant R460H, biotinylated bait (human); test: as above
[19] = molecular target: Human Semaphorin-7A ectodomain, natural variant Q457K, biotinylated bait (human); test: as above

UniProt O75326, sequence (O75326 53-490): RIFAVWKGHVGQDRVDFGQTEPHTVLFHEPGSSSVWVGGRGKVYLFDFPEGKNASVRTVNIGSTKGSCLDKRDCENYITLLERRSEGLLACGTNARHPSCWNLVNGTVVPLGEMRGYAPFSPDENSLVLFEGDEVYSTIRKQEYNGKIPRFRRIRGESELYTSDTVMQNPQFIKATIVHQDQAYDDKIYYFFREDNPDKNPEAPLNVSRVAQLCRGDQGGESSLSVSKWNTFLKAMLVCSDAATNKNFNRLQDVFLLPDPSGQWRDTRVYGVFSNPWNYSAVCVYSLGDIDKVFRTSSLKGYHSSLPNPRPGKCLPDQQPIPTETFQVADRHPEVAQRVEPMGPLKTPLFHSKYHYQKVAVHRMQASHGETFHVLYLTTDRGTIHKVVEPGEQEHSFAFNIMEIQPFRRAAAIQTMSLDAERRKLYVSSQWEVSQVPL

purified monomeric MTRAP (His-tagged ectodomain, analyte in SPR) (domain or fragment)
koff [1]: 0.061 s⁻¹ | koff [2]: 0.063 s⁻¹ | Kd [3]: 830 nM

purified monomeric Semaphorin-7A ectodomain (Cd4d3+4-His6) (domain or fragment)
Kd [4]: 1180 nM | Kd [5]: 1960 nM | stoichiometry N [6]: 2 | stoichiometry N [7]: 2

monomeric His-tagged MTRAP ectodomain lacking the Cd4d3+4-tag (domain or fragment)
stoichiometry N [8]: 1

Human Semaphorin-7A entire ectodomain, soluble monomeric His-tagged (Cd4d3+4-His6), purified (domain or fragment)
Kd [9]: 1940 nM and 1930 nM and 2000 nM | Kd [10]: 1070 nM and 850 nM and 1620 nM

P. falciparum MTRAP entire ectodomain, monomeric His-tagged, purified (domain or fragment)
koff [11]: 0.046 s⁻¹ and 0.057 s⁻¹ and 0.052 s⁻¹ | koff [12]: 0.059 s⁻¹ and 0.053 s⁻¹ and 0.056 s⁻¹ | koff [13]: 0.054 s⁻¹ and 0.045 s⁻¹ and 0.05 s⁻¹ | koff [14]: 0.053 s⁻¹ and 0.047 s⁻¹ and 0.05 s⁻¹ | koff [15]: 0.05 s⁻¹ and 0.055 s⁻¹ and 0.053 s⁻¹ | koff [16]: 0.058 s⁻¹ and 0.054 s⁻¹ and 0.056 s⁻¹ | koff [17]: 0.056 s⁻¹ and 0.054 s⁻¹ and 0.055 s⁻¹ | koff [18]: 0.049 s⁻¹ and 0.051 s⁻¹ and 0.05 s⁻¹ | koff [19]: 0.053 s⁻¹ and 0.058 s⁻¹ and 0.056 s⁻¹
